Consider two molecules from patent US11066455B2, “Tmem100 peptides and variants thereof and their use in treating or preventing diseases or conditions” (The Johns Hopkins University, priority 2014, dated 2021).

* marks the point of attachment. Myristoyl = CCCCCCCCCCCCCC(=O)*

The subject of assay [1] is neuropathic mechanical hypersensitivity in SNL rats. The format is in vivo, rat. Particulars: intrathecal 10 μl; h-T100 10-100 μM, HC-030031 10-200 μM, scrambled 100 μM. An excerpt:
An modified L5 SNL model was produced as described in previously (He et al., 2014; Shechter et al., 2013). Male Sprague-Dawley rats (200-350 g, Harlan, Indianapolis, Ind.) were anesthetized with 2% isoflurane. The left L5 spinal nerve was ligated with a 6-0 silk suture and cut distally. The muscle layer was closed with 4-0 chromic gut suture and the skin closed with metal clips. For intrathecal catheter implantation, a small slit was cut in the atlanto-occipital membrane of rats, into which a saline-filled piece of PE-10 tubing (6-7 cm) was inserted (He et al., 2014). […] Hypersensitivity to punctuate mechanical stimulation was determined with the up-down method by using a series of von Frey filaments (0.38-15.1 g) applied for 4-6 seconds to the test area on the plantar surface of the hindpaw (Chaplan et al., 1994; He et al., 2014). The PWT was determined according to the formula provided by Dixon (Dixon, 1980). […] HC-030031 was purchased from Tocris Bioscience (Bristol, UK). Both drugs were dissolved in 10% dimethylsulfoxide (DMSO), 5% Tween 80 and 85% sterile saline solution. The final working solution which was injected by intrathecal route contained <1% DMSO. The number of animals used in each study was based on experience with similar studies and power analysis calculations. Animals were randomized to the different treatment groups and blinded the experimenter to drug treatment to reduce selection and observation bias. After the experiments were completed, no data point was excluded. STATISTICA 6.0 software (StatSoft, Inc., Tulsa, Okla.) was used to conduct all statistical analyses. The Tukey honestly significant difference (HSD) post-hoc test was used to compare specific data points. Bonferroni correction was applied for multiple comparisons. Two-tailed tests were performed, and data are expressed as mean±SEM; P<0.05 was considered significant in all tests.
The sequence from the last 28 amino acids of the C-terminus of the Tmem100-3Q mutant protein was synthesized and myristoylated at its N-terminus (myr-[…]-COOH) (SEQ ID NO: 8) by Twentyfirst Century Biochemicals. […] For the calcium imaging assay, the peptides were added to the calcium imaging buffer with a final concentration of 200 nM and incubated for at least […] at room temperature. For the mice behavioral assays, the peptides (5 μL, 2 mM) were injected subcutaneously in the hindpaw at least 30 minutes before testing. For the rat behavior assays, human T100-3Q (h-T100), a palmitoylated cell permeable peptide mutated based on the C terminus of human sequence in Tmem100, was applied. The sequence is Palmitoyl-[…]-COOH (SEQ ID NO: 7).

Assay [2] deals with TRPA1 (expressed in heterologous cells: CHO, HEK293T). As to the kind of experiment: cell-based or functional assay.
TRPA1 (expressed in heterologous cells: CHO, HEK293T), sequence (O75762 whole entry): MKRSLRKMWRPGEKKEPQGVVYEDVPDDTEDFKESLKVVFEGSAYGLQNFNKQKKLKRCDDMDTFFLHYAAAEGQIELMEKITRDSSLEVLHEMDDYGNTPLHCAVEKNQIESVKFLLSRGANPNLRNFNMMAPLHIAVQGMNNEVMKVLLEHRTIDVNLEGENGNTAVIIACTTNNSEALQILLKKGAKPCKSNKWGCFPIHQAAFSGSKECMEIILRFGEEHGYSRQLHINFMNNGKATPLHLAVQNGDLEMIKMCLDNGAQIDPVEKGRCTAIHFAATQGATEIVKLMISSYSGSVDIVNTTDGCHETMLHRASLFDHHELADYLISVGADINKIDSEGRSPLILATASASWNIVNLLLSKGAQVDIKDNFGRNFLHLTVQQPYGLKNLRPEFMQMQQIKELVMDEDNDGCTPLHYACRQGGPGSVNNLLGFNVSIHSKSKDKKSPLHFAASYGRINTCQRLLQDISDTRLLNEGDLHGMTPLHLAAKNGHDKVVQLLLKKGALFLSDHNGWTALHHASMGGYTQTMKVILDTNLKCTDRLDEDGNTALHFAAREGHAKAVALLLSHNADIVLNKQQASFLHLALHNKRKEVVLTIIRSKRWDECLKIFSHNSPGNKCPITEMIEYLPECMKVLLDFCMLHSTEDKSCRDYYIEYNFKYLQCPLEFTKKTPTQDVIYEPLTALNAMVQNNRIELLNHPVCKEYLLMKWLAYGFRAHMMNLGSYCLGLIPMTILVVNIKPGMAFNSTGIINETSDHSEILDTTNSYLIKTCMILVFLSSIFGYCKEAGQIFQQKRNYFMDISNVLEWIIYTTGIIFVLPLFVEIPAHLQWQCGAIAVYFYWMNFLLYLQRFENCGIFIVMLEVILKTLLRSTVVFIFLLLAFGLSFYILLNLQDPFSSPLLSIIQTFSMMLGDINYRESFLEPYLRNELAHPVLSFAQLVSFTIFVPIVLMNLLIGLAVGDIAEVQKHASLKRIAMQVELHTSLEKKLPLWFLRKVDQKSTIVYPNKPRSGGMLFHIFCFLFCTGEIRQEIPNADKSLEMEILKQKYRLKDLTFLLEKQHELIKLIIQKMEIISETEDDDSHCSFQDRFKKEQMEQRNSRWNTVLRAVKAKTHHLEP
The target in assay [3] is TRPV1 (expressed in heterologous cells: CHO, HEK293T). As to the kind of experiment: cell-based or functional assay.

Turning to “myr-QRVLEQVLQNWSRRANVKQAQKFQVKCT-COOH (Myristoyl-QRVLEQVLQNWSRRANVKQAQKFQVKCT-OH; SMILES CCCCCCCCCCCCCC(=O)N[C@@H](CCC(N)=O)C(=O)N[C@@H](CCCNC(=N)N)C(=O)N[C@H](C(=O)N[C@@H](CC(C)C)C(=O)N[C@@H](CCC(=O)O)C(=O)N[C@@H](CCC(N)=O)C(=O)N[C@H](C(=O)N[C@@H](CC(C)C)C(=O)N[C@@H](CCC(N)=O)C(=O)N[C@@H](CC(N)=O)C(=O)N[C@@H](Cc1c[nH]c2ccccc12)C(=O)N[C@@H](CO)C(=O)N[C@@H](CCCNC(=N)N)C(=O)N[C@@H](CCCNC(=N)N)C(=O)N[C@@H](C)C(=O)N[C@@H](CC(N)=O)C(=O)N[C@H](C(=O)N[C@@H](CCCCN)C(=O)N[C@@H](CCC(N)=O)C(=O)N[C@@H](C)C(=O)N[C@@H](CCC(N)=O)C(=O)N[C@@H](CCCCN)C(=O)N[C@@H](Cc1ccccc1)C(=O)N[C@@H](CCC(N)=O)C(=O)N[C@H](C(=O)N[C@@H](CCCCN)C(=O)N[C@@H](CS)C(=O)N[C@H](C(=O)O)[C@@H](C)O)C(C)C)C(C)C)C(C)C)C(C)C) [scrambled]”, the “ipsilateral paw withdrawal threshold (PWT) vs pre-drug” value in assay [1] was “no effect”.

B1: Tmem100-3Q mutant (full-length, mouse) (protein)
chain: MTEESTKENLGAPKSPTPVTMEKNPKREVVVTTGPLVSEVQLMAATGGAELSCYRCIIPFAVVVFITGIVVTAVAYSFNSHGSIISIFGLVLLSSGLFLLASSALCWKVRQRNKKVQQQESQTALVVNQRCLFA
The molecule B1 registered an MO (10 µM)-induced single-channel activity (NPo), CHO cells in assay [2] of 1.05. Besides, the CAP (100 nM)-induced single-channel activity (NPo), CHO cells in assay [3] came out at 0.73.
